The values that follow come from patent EP4552657A1, “RADIOPHARMACEUTICAL COMPLEXES AND COMBINATIONS” (priority 2023, dated 2025).

For experiment [1], the target named is T1, human recombinant DLL3 antigen (Homo sapiens, UniProt Q9NYJ7).
T1 sequence (Q9NYJ7 27-618): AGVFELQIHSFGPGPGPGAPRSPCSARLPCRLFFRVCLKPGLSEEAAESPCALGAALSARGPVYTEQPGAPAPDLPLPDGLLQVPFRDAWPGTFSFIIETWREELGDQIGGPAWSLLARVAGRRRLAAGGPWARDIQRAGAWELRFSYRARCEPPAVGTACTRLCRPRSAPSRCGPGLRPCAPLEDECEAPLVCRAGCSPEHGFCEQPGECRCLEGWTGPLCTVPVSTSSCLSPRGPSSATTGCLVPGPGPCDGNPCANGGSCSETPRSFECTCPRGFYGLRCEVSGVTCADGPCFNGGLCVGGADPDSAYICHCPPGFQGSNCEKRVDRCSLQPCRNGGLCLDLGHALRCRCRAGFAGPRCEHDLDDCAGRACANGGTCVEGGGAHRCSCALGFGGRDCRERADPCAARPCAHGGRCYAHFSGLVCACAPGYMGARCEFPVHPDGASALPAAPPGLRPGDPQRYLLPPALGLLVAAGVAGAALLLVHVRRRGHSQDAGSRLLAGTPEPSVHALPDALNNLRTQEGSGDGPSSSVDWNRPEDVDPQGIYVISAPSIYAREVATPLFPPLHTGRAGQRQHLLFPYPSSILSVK
The experiment in a line: ELISA, binding potency to human recombinant DLL3 antigen. Conditions: compared to unconjugated Rovalpituzumab. As for the experimental part: The relevant antigen was immobilized on ELISA plate by absorption. The plate was washed (PBS with 0.1% Tween 20) and incubated with blocking buffer (PBS + 3% BSA) for 2 h ± 1 h to reduce unspecific binding. Relevant antibodies and ACCs diluted in assay buffer (PBS with 0.05% Tween 20 + 1.5% BSA). The blocking buffer was discarded, and the antibodies and ACCs and controls were applied in triplicates to the plate according to a plate set-up defined in each protocol. After incubation for 1 h ± 30 min at RT, the plate was washed. A horse radish peroxidase (HRP)-conjugated secondary antibody binding specifically to the primary mAb (anti-human IgG-HRP) was added to the plate. After incubation for 1 hour ± 30 min at RT, the plate was washed. A chromogenic substrate (2,2'-azino-bis (3-ethylbenzothiazoline-6-sulphonic acid) (ABTS)), for HRP leading to the formation of a green color was added to the plate and used for detection. The absorbance of the colored reaction product was measured with an absorbance plate reader, e.g. EnVision 2103 Multilabel Reader from Perkin Elmer, or iMark Microplate Absorbance Reader from Bio-Rad.
Absorbance against the log of the antibody concentration was plotted on the GraphPad Prism software.
The binding potency of Rovalpituzumab-macropa, Rovalpituzumab-DOTA was compared to unconjugated Rovalpituzumab by using an ELISA assay. […]
A general note: ELISA stands for enzyme-linked immunosorbent assay.

The target of the next experiment is T2, recombinant human DLL3 (Homo sapiens, UniProt Q9NYJ7).
T2 sequence (Q9NYJ7 27-618): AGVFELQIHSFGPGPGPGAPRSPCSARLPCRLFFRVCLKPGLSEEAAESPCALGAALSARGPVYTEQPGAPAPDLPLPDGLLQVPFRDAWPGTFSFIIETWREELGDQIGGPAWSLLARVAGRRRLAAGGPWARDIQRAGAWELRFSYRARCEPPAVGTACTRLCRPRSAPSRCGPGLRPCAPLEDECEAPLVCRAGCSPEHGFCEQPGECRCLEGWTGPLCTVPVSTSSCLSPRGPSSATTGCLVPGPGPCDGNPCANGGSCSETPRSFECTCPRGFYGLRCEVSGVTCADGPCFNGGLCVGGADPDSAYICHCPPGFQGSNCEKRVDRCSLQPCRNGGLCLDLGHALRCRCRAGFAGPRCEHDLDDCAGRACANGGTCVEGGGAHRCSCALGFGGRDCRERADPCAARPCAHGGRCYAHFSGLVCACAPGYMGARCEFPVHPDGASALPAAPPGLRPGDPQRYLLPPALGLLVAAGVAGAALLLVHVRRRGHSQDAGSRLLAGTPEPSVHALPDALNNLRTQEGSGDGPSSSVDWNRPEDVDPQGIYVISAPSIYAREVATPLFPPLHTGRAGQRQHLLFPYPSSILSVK
The experiment in a line: Immunoreactive fraction (IRF), binding to DLL3-coated beads. Conditions: 20 kBq/µg. The protocol:
Shortly after completion of the radiolabeling, the binding was assessed by measuring the fraction of radiolabeled antibody-chelator conjugate bound to relevant antigen coated magnetic beads (Thermo Fisher Scientific). In short, beads were placed in 2 mL Eppendorf tubes in 90 µL buffer (PBS/0.1% Tween 20/1% BSA). The radiolabeled compounds were diluted to 5 Bq/µL in buffer and 50 Bq were added to each bead-containing tube. The binding lasted for 60 min while shaking at 750 rpm at room temperature. After completion of the binding step, magnet (DynaMag-2) was used to separate the beads from […] supernatant. The radio activities in the supernatant and in the beads of each sample were measured using a high purity Germanium detector (Ortec). […] Total binding was defined as [(activity in beads […])/ (total activity)] × 100.

B1: Rovalpituzumab-DOTA (conjugate, chains of the INN, looked up)
VH: QVQLVQSGAEVKKPGASVKVSCKASGYTFTNYGMNWVRQAPGQGLEWMGWINTYTGEPTYADDFKGRVTMTTDTSTSTAYMELRSLRSDDTAVYYCARIGDSSPSDYWGQGTLVTVSS
VL: EIVMTQSPATLSVSPGERATLSCKASQSVSNDVVWYQQKPGQAPRLLIYYASNRYTGIPARFSGSGSGTEFTLTISSLQSEDFAVYYCQQDYTSPWTFGQGTKLEIK
modifications: DOTA chelator conjugate
For B1, in experiment [1], the EC50 entry is listed as “increased EC50” and the max absorbance value entry is given as “Slightly lower max absorbance value”.

B2: Ac-225-macropa-Rovalpituzumab (conjugate, chains of the INN, looked up)
VH: QVQLVQSGAEVKKPGASVKVSCKASGYTFTNYGMNWVRQAPGQGLEWMGWINTYTGEPTYADDFKGRVTMTTDTSTSTAYMELRSLRSDDTAVYYCARIGDSSPSDYWGQGTLVTVSS
VL: EIVMTQSPATLSVSPGERATLSCKASQSVSNDVVWYQQKPGQAPRLLIYYASNRYTGIPARFSGSGSGTEFTLTISSLQSEDFAVYYCQQDYTSPWTFGQGTKLEIK
modifications: macropa chelator, actinium-225
Turning to B2, in the experiment with recombinant human DLL3, the “amount of DLL3-coated beads at which the maximum binding was achieved” value was 10 µg. For the same molecule, the “maximum binding (IRF)” value with recombinant human DLL3 (10 µg of DLL3-coated beads) is reported as 86%.
